Laboratory results: PMC2896673 (Journal of Biomedicine and Biotechnology, 2010)

Biological target: human procollagen V proα2(V) chain, produced in HEK-293 cells (human, UniProt P05997 27-1499)
Assay: ion-exchange chromatography (DEAE-cellulose) with Western blot of the fractions; supernatant of medium of co-transfected HEK-293 cells (clone C22) after dialysis against 50 mM Tris-HCl pH 8.6; linear 0–0.6 M NaCl gradient; fractions double probed with mAb 18G5 and polyclonal antibodies to collagen V
Conditions: partners not purified

human procollagen V proα2(V) chain, produced in HEK-293 cells, sequence (P05997 27-1499): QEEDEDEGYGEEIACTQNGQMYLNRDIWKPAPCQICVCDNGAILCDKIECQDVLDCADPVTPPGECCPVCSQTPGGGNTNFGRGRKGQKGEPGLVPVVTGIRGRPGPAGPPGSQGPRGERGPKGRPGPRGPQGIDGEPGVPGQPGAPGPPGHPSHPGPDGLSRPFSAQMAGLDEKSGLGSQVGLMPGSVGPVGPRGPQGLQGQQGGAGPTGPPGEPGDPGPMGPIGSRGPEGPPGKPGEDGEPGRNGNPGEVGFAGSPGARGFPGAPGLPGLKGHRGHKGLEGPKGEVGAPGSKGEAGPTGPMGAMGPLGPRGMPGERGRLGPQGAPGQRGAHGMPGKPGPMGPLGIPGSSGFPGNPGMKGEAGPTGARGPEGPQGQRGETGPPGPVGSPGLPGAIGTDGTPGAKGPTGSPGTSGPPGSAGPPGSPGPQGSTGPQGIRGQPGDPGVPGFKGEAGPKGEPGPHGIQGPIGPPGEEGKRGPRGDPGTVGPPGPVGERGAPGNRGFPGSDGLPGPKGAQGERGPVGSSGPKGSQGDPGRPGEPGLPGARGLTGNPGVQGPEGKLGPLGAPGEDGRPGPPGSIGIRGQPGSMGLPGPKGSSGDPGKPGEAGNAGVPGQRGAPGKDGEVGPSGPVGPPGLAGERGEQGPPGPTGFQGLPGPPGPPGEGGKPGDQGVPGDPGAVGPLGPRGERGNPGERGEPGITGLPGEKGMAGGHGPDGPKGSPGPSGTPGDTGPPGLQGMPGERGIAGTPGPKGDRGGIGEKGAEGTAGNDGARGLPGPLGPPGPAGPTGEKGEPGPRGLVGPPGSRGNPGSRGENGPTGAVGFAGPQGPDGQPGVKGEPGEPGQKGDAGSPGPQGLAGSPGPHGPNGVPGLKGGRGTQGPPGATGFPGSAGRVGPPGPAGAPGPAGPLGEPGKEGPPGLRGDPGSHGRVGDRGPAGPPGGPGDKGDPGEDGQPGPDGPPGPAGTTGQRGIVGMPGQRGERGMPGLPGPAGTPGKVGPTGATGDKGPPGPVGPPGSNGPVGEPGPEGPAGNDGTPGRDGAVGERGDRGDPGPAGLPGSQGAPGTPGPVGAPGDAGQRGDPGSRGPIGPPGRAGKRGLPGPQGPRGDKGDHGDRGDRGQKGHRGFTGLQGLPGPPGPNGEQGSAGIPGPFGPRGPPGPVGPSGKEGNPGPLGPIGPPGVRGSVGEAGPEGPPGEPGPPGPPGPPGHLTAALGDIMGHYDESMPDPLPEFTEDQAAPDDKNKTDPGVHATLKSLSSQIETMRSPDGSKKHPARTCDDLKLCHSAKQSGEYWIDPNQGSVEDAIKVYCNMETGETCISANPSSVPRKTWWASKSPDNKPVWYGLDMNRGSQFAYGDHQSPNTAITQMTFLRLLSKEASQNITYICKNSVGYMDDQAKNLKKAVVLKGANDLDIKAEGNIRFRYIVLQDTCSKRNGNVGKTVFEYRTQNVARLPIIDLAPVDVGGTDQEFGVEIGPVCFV

stoichiometry N: ~2
B1: human procollagen V proα1(V) chain, produced in HEK-293 cells (natural protein, UniProt P20908 38-1838, looked up)
chain: QPADLLKVLDFHNLPDGITKTTGFCATRRSSKGPDVAYRVTKDAQLSAPTKQLYPASAFPEDFSILTTVKAKKGSQAFLVSIYNEQGIQQIGLELGRSPVFLYEDHTGKPGPEDYPLFRGINLSDGKWHRIALSVHKKNVTLILDCKKKTTKFLDRSDHPMIDINGIIVFGTRILDEEVFEGDIQQLLFVSDHRAAYDYCEHYSPDCDTAVPDTPQSQDPNPDEYYTEGDGEGETYYYEYPYYEDPEDLGKEPTPSKKPVEAAKETTEVPEELTPTPTEAAPMPETSEGAGKEEDVGIGDYDYVPSEDYYTPSPYDDLTYGEGEENPDQPTDPGAGAEIPTSTADTSNSSNPAPPPGEGADDLEGEFTEETIRNLDENYYDPYYDPTSSPSEIGPGMPANQDTIYEGIGGPRGEKGQKGEPAIIEPGMLIEGPPGPEGPAGLPGPPGTMGPTGQVGDPGERGPPGRPGLPGADGLPGPPGTMLMLPFRFGGGGDAGSKGPMVSAQESQAQAILQQARLALRGPAGPMGLTGRPGPVGPPGSGGLKGEPGDVGPQGPRGVQGPPGPAGKPGRRGRAGSDGARGMPGQTGPKGDRGFDGLAGLPGEKGHRGDPGPSGPPGPPGDDGERGDDGEVGPRGLPGEPGPRGLLGPKGPPGPPGPPGVTGMDGQPGPKGNVGPQGEPGPPGQQGNPGAQGLPGPQGAIGPPGEKGPLGKPGLPGMPGADGPPGHPGKEGPPGEKGGQGPPGPQGPIGYPGPRGVKGADGIRGLKGTKGEKGEDGFPGFKGDMGIKGDRGEIGPPGPRGEDGPEGPKGRGGPNGDPGPLGPPGEKGKLGVPGLPGYPGRQGPKGSIGFPGFPGANGEKGGRGTPGKPGPRGQRGPTGPRGERGPRGITGKPGPKGNSGGDGPAGPPGERGPNGPQGPTGFPGPKGPPGPPGKDGLPGHPGQRGETGFQGKTGPPGPPGVVGPQGPTGETGPMGERGHPGPPGPPGEQGLPGLAGKEGTKGDPGPAGLPGKDGPPGLRGFPGDRGLPGPVGALGLKGNEGPPGPPGPAGSPGERGPAGAAGPIGIPGRPGPQGPPGPAGEKGAPGEKGPQGPAGRDGLQGPVGLPGPAGPVGPPGEDGDKGEIGEPGQKGSKGDKGEQGPPGPTGPQGPIGQPGPSGADGEPGPRGQQGLFGQKGDEGPRGFPGPPGPVGLQGLPGPPGEKGETGDVGQMGPPGPPGPRGPSGAPGADGPQGPPGGIGNPGAVGEKGEPGEAGEPGLPGEGGPPGPKGERGEKGESGPSGAAGPPGPKGPPGDDGPKGSPGPVGFPGDPGPPGEPGPAGQDGPPGDKGDDGEPGQTGSPGPTGEPGPSGPPGKRGPPGPAGPEGRQGEKGAKGEAGLEGPPGKTGPIGPQGAPGKPGPDGLRGIPGPVGEQGLPGSPGPDGPPGPMGPPGLPGLKGDSGPKGEKGHPGLIGLIGPPGEQGEKGDRGLPGPQGSSGPKGEQGITGPSGPIGPPGPPGLPGPPGPKGAKGSSGPTGPKGEAGHPGPPGPPGPPGEVIQPLPIQASRTRRNIDASQLLDDGNGENYVDYADGMEEIFGSLNSLKLEIEQMKRPLGTQQNPARTCKDLQLCHPDFPDGEYWVDPNQGCSRDSFKVYCNFTAGGSTCVFPDKKSEGARITSWPKENPGSWFSEFKRGKLLSYVDAEGNPVGVVQMTFLRLLSASAHQNVTYHCYQSVAWQDAATGSYDKALRFLGSNDEEMSYDNNPYIRALVDGCATKKGYQKTVLEIDTPKVEQVPIVDIMFNDFGEASQKFGFEVGPACFMG
